± gives the standard deviation of the averaged measurements.
Tested on: ATP
Test: switch fluorescence ratio, 500 uM ATP over buffer (Cy3 cluster intensity, sum of 5 cycles each) (fold (ratio)); higher = stronger signal-on switching upon ATP binding; sequences stand for … in TCGTCGGCAGCGTCAGATGTGTATAAGAGACAGTTTTTTTTTTTTTTTTTTTTTTTTT…TC
Details: aptamer strand: ATP DNA aptamer (quencher-CACCTGGGGGAGTATTGCGGAGGAAGG + anchor), 100 nM annealed; ATP concentration: 500 uM
Procedure, shortened: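 Imaging in selection buffer was followed by imaging after 15 min with 500 uM ATP at 22 °C, for Cy3-labelled switching-strand clusters annealed to 100 nM quencher-labelled ATP aptamer on a modified Illumina MiSeq flow-cell. Five of these buffer/ATP cycles ran, separated by NaOH stripping and re-annealing. The fluorescence ratio per cluster is summed target-cycle over summed buffer-cycle Cy3 intensity, averaged per switch-domain sequence; clusters outside 100-1000 RFU were removed.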
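Also: ATP exposure 15 min at 22 °C before imaging.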

Sequence | switch fluorescence ratio
CAAGAGGGTT | 0.99 ± 0.032
CAAGAGTGTG | 0.98 ± 0.032
CAAGATTCTT | 0.975 ± 0.056
CAAGATTGCC | 1 ± 0.034
CAAGCAAATT | 1.042 ± 0.0039
CAAGCAGGCA | 0.9935 ± 0.0067
CAAGCATCGC | 0.94962 ± 2.2e-05
CAAGCGGGGG | 1.01 ± 0.05
CAAGCTATCA | 1.026 ± 0.002
CAAGGACATA | 1.07 ± 0.038
CAAGGACGTT | 0.997 ± 0.02
CAAGGACTGG | 0.997 ± 0.032
CAAGGATTTT | 0.9929 ± 0.0012
CAAGGCTACG | 1.06 ± 0.04
CAAGGGAAGT | 0.978 ± 0.017
CAAGGGATTT | 0.982 ± 0.036
CAAGGGGCAG | 1.009 ± 0.0057
CAAGGGGCGT | 1.01 ± 0.035
CAAGGGGGCG | 0.994 ± 0.048
CAAGGGGGGA | 1.01 ± 0.023
CAAGGGGGTT | 1.02 ± 0.05
CAAGGGTTGC | 0.987 ± 0.056
CAAGGTATTG | 0.987 ± 0.017
CAAGGTGGGG | 1.03 ± 0.0038
CAAGGTGTGT | 1.01 ± 0.043

Sequence | switch fluorescence ratio
CAAGGTTGAA | 0.9902 ± 0.0079
CAAGTAATTG | 1.025 ± 0.0088
CAAGTGAGGG | 1.04 ± 0.015
CAAGTGCAGA | 1.052 ± 0.0078
CAAGTTATAA | 0.994 ± 0.023
CAAGTTGATG | 0.982 ± 0.057
CAATAACTGG | 1.01 ± 0.015
CAATACCTAT | 1.05 ± 0.022
CAATACGGGG | 1.13 ± 0.085
CAATACTACT | 1.361 ± 0.01
CAATAGTTGG | 0.993 ± 0.01
CAATATGCCG | 0.968 ± 0.026
CAATATGTGT | 0.986 ± 0.036
CAATATGTTG | 1.02 ± 0.035
CAATATTACA | 1.05 ± 0.016
CAATCATGTC | 1.04 ± 0.05
CAATCCTATC | 1.02 ± 0.034
CAATCGTAAA | 1.01 ± 0.02
CAATGACACT | 1.04 ± 0.044
CAATGAGAGA | 0.9792 ± 0.0083
CAATGCAGCA | 0.976 ± 0.021
CAATGCAGGG | 1.03 ± 0.014
CAATGCGGAG | 1 ± 0.015
CAATGGACGT | 0.99 ± 0.029
CAATGGGATA | 1.02 ± 0.032

Sequence | switch fluorescence ratio
CAATGGGGGT | 1 ± 0.038
CAATGGGTAG | 0.9989 ± 0.0018
CAATGTCACC | 1.06 ± 0.019
CAATGTGGGT | 0.986 ± 0.0086
CAATGTGTCG | 1.07 ± 0.055
CAATGTGTCT | 1 ± 0.033
CAATGTTAGA | 1 ± 0.014
CAATGTTCGA | 0.981 ± 0.01
CAATTACTTT | 1.06 ± 0.026
CAATTATTCG | 1.04 ± 0.052
CAATTCACCG | 1.04 ± 0.022
CAATTCAGGA | 1.01 ± 0.036
CAATTGGGTT | 0.985 ± 0.025
CAATTTGTCT | 1.01 ± 0.028
CAATTTGTGC | 1.02 ± 0.1
CACAAAATAG | 1.45 ± 0.49
CACAGTTTGC | 1.02 ± 0.026
CACATATTCC | 1.14 ± 0.035
CACATTATTC | 1.04 ± 0.033
CACATTTAGG | 0.978 ± 0.032
CACATTTGGA | 0.985 ± 0.051
CACCAATAGC | 1.31 ± 0.059
CACCACGTGG | 1.01 ± 0.018
CACCAGTCAA | 1.56 ± 0.33
CACCATTAGT | 0.9802 ± 0.0079

Sequence | switch fluorescence ratio
CACCCTGGTG | 4.51 ± 0.57
CACCGACTTT | 1.06 ± 0.0014
CACCGTGGTC | 1.14 ± 0.023
CACCGTTTTC | 1.1 ± 0.028
CACCTACATG | 1.21 ± 0.031
CACCTCAGAT | 1.05 ± 0.023
CACCTTACTT | 1.26 ± 0.062
CACGCATTTT | 1.12 ± 0.089
CACGGAAGCA | 1.07 ± 0.019
CACGGAGCAG | 2.52 ± 0.15
CACGGATAAA | 1.04 ± 0.022
CACGGATGGT | 1.01 ± 0.069
CACGGCAAGA | 1.89 ± 0.087
CACGGCCCAA | 0.9224 ± 0.0023
CACGGGGTTT | 0.954 ± 0.011
CACGGTATTT | 1.19 ± 0.067
CACGTCTGAA | 0.996 ± 0.047
CACGTTCAGC | 1.04 ± 0.035
CACGTTGCCT | 0.979 ± 0.052
CACGTTGTTT | 0.9963 ± 0.0019
CACGTTTCCT | 1.1 ± 0.067
CACTAACCAT | 1.09 ± 0.069
CACTAAGTGG | 1.025 ± 0.0023
CACTCTCAGC | 1.04 ± 0.012
CACTCTGTGT | 1.02 ± 0.026

Sequence | switch fluorescence ratio
CACTGACTTA | 1.19 ± 0.032
CACTGCTCCT | 1.09 ± 0.013
CACTGGGGAT | 0.981 ± 0.046
CACTGGGGTG | 1.04 ± 0.038
CACTGTAACC | 1.19 ± 0.072
CACTGTGAAT | 1.009 ± 0.0024
CACTTTTTTA | 0.962 ± 0.039
CAGAAATTAG | 1.005 ± 0.0024
CAGAACTCTT | 0.963 ± 0.034
CAGAAGCCTG | 1.014 ± 0.0028
CAGAAGGGAG | 0.98 ± 0.01
CAGAAGGGCG | 1 ± 0.036
CAGAAGTTTG | 1 ± 0.034
CAGAATGCGG | 0.991 ± 0.023
CAGAATGTGG | 0.996 ± 0.068
CAGACAGGGG | 1.05 ± 0.02
CAGACCAGCT | 1.02 ± 0.036
CAGACGGAGT | 1.039 ± 0.01
CAGACGGGGG | 1.01 ± 0.026
CAGACGGGTC | 1 ± 0.041
CAGAGACCTG | 1.02 ± 0.057
CAGAGAGGTC | 1.03 ± 0.039
CAGAGATTCT | 0.992 ± 0.0077
CAGAGGGACT | 1.01 ± 0.023
CAGAGGGCGG | 0.981 ± 0.047

Sequence | switch fluorescence ratio
CAGAGGTAGG | 0.973 ± 0.023
CAGAGGTTCC | 1.05 ± 0.042
CAGAGTACGT | 1.036 ± 0.0091
CAGAGTCTGT | 0.999 ± 0.022
CAGAGTGTGG | 0.955 ± 0.026
CAGAGTTAAT | 0.993 ± 0.045
CAGAGTTTAG | 0.973 ± 0.032
CAGATCCGGG | 1 ± 0.024
CAGATGCGGA | 0.984 ± 0.017
CAGATTTTTA | 1.01 ± 0.029
CAGCAACTCA | 1.65 ± 0.024
CAGCAGAGGG | 1.01 ± 0.01
CAGCGGCGGA | 0.981 ± 0.029
CAGCGGGGGA | 1.012 ± 0.0014
CAGCGGGGGT | 1.03 ± 0.05
CAGCGTATTT | 1.03 ± 0.036
CAGCGTGGCA | 1 ± 0.021
CAGCGTTGTT | 0.993 ± 0.018
CAGCTAACTT | 1.0399 ± 0.00052
CAGCTACGTC | 1.01 ± 0.04
CAGCTAGAGG | 1 ± 0.037
CAGCTGAGGC | 0.976 ± 0.038
CAGCTGGGGA | 1.01 ± 0.055
CAGCTGGGGG | 1 ± 0.024
CAGGAAAGCA | 0.994 ± 0.031

Sequence | switch fluorescence ratio
CAGGAAAGCT | 1.234 ± 0.0051
CAGGAATGCG | 1.04 ± 0.055
CAGGACTTGC | 0.995 ± 0.03
CAGGAGACGC | 1.05 ± 0.036
CAGGAGGAGA | 1.025 ± 0.01
CAGGAGGGGT | 1.03 ± 0.025
CAGGAGTGTA | 1.03 ± 0.036
CAGGATGGGC | 0.977 ± 0.027
CAGGCAAGCG | 1.04 ± 0.026
CAGGCAGCAT | 1.32 ± 0.089
CAGGCAGGTC | 0.997 ± 0.024
CAGGCATAAG | 0.9805 ± 0.0036
CAGGCATAGG | 1.06 ± 0.033
CAGGCATGAG | 1.01 ± 0.011
CAGGCCGTAT | 1.01 ± 0.016
CAGGCGAGTG | 0.96 ± 0.014
CAGGCGGAGA | 0.969 ± 0.026
CAGGCGGCCC | 1.019 ± 0.01
CAGGCGGGTG | 1.06 ± 0.11
CAGGCTAGGT | 0.9873 ± 0.0049
CAGGGAACGG | 1.05 ± 0.022
CAGGGACATT | 1.08 ± 0.067
CAGGGACGGA | 1.02 ± 0.017
CAGGGACGTT | 0.987 ± 0.02
CAGGGAGTAG | 1.01 ± 0.021

Sequence | switch fluorescence ratio
CAGGGCATGG | 1.01 ± 0.0073
CAGGGCCTGT | 1.01 ± 0.028
CAGGGGAGGT | 1.02 ± 0.014
CAGGGGATGT | 0.985 ± 0.013
CAGGGGATTA | 1 ± 0.045
CAGGGGCAGC | 0.927 ± 0.05
CAGGGGCGCA | 1 ± 0.075
CAGGGGCTCG | 1.01 ± 0.036
CAGGGGGGTA | 1.01 ± 0.016
CAGGGGGGTT | 1.09 ± 0.21
CAGGGGTATC | 1.01 ± 0.033
CAGGGGTATT | 1.32 ± 0.42
CAGGGGTCTA | 0.9957 ± 0.004
CAGGGGTTA | 1.03 ± 0.044
CAGGGGTTGA | 0.987 ± 0.035
CAGGGGTTGC | 1.01 ± 0.013
CAGGGTATTT | 0.981 ± 0.032
CAGGGTGATG | 0.985 ± 0.024
CAGGGTGGAC | 1.04 ± 0.04
CAGGGTTGGT | 0.977 ± 0.033
CAGGGTTTCG | 1.02 ± 0.078
CAGGTAAATG | 0.9961 ± 0.0027
CAGGTCTTTC | 1.02 ± 0.021
CAGGTGAGTG | 1.251 ± 0.0088
CAGGTGCGGG | 1.1694 ± 0.0009

— the supplement of paper PMC10126150
